Article PMC9355956, “Structure of human spermine oxidase in complex with a highly selective allosteric inhibitor” (Communications Biology, 2022)
Where “and” joins values, the source holds several entries; their conditions need not be identical. Equal values may be shown once.

Substrate: NCCCNCCCCNCCCN
Assay: purified protein, by the assay type
Settings: other: substrate, 2.5 nM hSMOX; 11.3 °C

B1: hSMOX (Homo sapiens) (protein)
chain: MQSCESSGDSADDPLSRGLRRRGQPRVVVIGAGLAGLAAAKALLEQGFTDVTVLEASSHIGGRVQSVKLGHATFELGATWIHGSHGNPIYHLAEANGLLEETTDGERSVGRISLYSKNGVACYLTNHGRRIPKDVVEEFSDLYNEVYNLTQEFFRHDKPVNAESQNSVGVFTREEVRNRIRNDPDDPEATKRLKLAMIQQYLKVESCESSSHSMDEVSLSAFGEWTEIPGAHHIIPSGFMRVVELLAEGIPAHVIQLGKPVRCIHWDQASARPRGPEIEPRGEGDHNHDTGEGGQGGEEPRGGRWDEDEQWSVVVECEDCELIPADHVIVTVSLGVLKRQYTSFFRPGLPTEKVAAIHRLGIGTTDKIFLEFEEPFWGPECNSLQFVWEDEAESHTLTYPPELWYRKICGFDVLYPPERYGHVLSGWICGEEALVMEKCDDEAVAEICTEMLRQFTGNPNIPKPRRILRSAWGSNPYFRGSYSYTQVGSSGADVEKLAKPLPYTESSKTAPMQVLFSGEATHRKYYSTTHGALLSGQREAARLIEMYRDLFQQGT
With B1 the Km was 34 µM and 33.9 ± 2.7 µM.
